Experimental findings from article PMC5546430 are described below.

This assay concerns the target T1, human TMEM192 with a C-terminally fused HA epitope (human), Q8IY95.
T1 chain: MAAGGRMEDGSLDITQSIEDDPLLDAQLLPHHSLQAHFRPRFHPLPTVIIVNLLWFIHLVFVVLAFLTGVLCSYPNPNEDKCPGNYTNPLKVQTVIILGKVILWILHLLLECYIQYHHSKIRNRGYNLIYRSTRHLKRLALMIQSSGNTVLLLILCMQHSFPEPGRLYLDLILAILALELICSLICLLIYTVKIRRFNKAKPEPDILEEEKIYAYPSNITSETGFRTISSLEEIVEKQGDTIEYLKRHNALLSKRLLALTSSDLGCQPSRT
The assay is described as follows: non-reducing SDS-PAGE and Western blot; total lysates of transiently transfected HeLa cells denatured 5 min at 95°C in the absence of DTT; detection with anti-HA antibody 3F10; shows only disulphide-linked dimers. The conditions noted are these: remark: other sources report otherwise. In general terms: In western blotting, separated proteins are transferred to a membrane and probed.

B1: human TMEM192 with a C-terminally fused HA epitope, Q8IY95 1-271 (natural protein)
chain: MAAGGRMEDGSLDITQSIEDDPLLDAQLLPHHSLQAHFRPRFHPLPTVIIVNLLWFIHLVFVVLAFLTGVLCSYPNPNEDKCPGNYTNPLKVQTVIILGKVILWILHLLLECYIQYHHSKIRNRGYNLIYRSTRHLKRLALMIQSSGNTVLLLILCMQHSFPEPGRLYLDLILAILALELICSLICLLIYTVKIRRFNKAKPEPDILEEEKIYAYPSNITSETGFRTISSLEEIVEKQGDTIEYLKRHNALLSKRLLALTSSDLGCQPSRT
Usually stoichiometry N stands for the number of molecules, sites or subunits per partner or assembly. As to B1, the stoichiometry N is 2.
